Bounds are passed on as bounds.

Assay [1] concerns the target T1, human FcγRIIb extracellular domain with C-terminal His tag (human, UniProt P31994 43-217).
T1 sequence (looked up): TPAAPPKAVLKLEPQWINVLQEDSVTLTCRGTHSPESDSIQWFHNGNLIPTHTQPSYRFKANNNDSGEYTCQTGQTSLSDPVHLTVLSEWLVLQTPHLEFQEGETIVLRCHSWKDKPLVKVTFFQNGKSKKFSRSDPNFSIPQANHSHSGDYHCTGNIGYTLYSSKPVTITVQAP
Kind of assay: ratio of SPR KDs, FcγRIIaR over FcγRIIb.

In assay [2] the target is T2, human FcγRIIa type R (131Arg) extracellular domain with C-terminal His tag (human, UniProt P12318 34-217).
T2 sequence (looked up): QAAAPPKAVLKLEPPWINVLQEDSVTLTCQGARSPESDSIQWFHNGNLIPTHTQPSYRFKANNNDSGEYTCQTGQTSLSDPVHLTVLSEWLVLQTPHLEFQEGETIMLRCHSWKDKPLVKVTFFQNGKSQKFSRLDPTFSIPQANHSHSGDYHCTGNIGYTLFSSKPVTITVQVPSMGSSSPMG
As to the kind of experiment: ratio of SPR KDs, reference IL6R-B3/IL6R-L.

Assay [3] has as its target T1, human FcγRIIb extracellular domain with …. As to the kind of experiment: ratio of SPR KDs, reference IL6R-B3/IL6R-L.
The target of a further assay is T3, human FcγRIIa type R (human, UniProt P12318 34-217).
T3 sequence (looked up): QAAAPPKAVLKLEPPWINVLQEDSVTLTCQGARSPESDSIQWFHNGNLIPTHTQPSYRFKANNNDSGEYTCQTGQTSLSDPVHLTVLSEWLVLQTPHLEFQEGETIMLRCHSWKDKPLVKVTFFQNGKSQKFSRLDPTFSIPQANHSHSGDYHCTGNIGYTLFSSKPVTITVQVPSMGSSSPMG
Kind of assay: ratio of SPR KD values.

The next assay addresses T4, human FcγRIIb (human, UniProt P31994 43-217).
T4 sequence (looked up): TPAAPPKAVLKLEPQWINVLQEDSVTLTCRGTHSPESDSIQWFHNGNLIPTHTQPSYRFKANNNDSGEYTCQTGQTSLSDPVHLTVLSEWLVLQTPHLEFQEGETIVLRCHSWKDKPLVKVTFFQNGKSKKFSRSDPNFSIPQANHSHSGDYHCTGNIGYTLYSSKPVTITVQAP
Kind of assay: ratio of SPR KD values.

Assay [4] deals with T5, mouse FcγRIII (mouse, UniProt P08508 31-215).
T5 sequence (looked up): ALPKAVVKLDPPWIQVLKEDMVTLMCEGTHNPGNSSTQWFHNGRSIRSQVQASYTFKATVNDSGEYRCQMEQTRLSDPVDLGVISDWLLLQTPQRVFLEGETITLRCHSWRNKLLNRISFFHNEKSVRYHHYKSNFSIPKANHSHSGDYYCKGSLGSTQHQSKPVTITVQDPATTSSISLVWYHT
As to the kind of experiment: SPR.

Assay [5] has as its target T6, mouse FcγRIIb (mouse, UniProt P08101 30-210).
T6 sequence (looked up): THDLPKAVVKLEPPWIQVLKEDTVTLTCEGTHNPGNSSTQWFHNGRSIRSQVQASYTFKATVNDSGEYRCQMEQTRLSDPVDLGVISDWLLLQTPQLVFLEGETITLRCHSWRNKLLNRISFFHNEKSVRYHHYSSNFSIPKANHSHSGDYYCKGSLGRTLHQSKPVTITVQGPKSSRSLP
Kind of assay: SPR. Background: In SPR one partner is held on a chip, and binding of the other changes the refractive index at the surface.

Assay [6] deals with T5, mouse FcγRIII. Kind of assay: SPR. The source holds these as a separate data set.
The target of assay [7] is T6, mouse FcγRIIb. Kind of assay: SPR. The source holds these as a separate data set.
In assay [8] the target is human IgA (recombinant, variable region from an anti-human IL6R antibody) (human). As to the kind of experiment: SPR.
The target in another assay is human IgA (hIgA). As to the kind of experiment: SPR, comparison of calcium conditions.
The target in assay [9] is T7, FcγRIIa type H extracellular domain with C-terminal His tag (human, UniProt P12318 34-217).
T7 sequence (looked up): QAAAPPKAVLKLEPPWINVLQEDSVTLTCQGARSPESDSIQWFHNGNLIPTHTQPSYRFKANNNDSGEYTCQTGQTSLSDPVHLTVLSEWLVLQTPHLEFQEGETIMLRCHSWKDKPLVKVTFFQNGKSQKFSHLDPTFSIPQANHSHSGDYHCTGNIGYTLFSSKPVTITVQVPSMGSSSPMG
As to the kind of experiment: SPR.

In assay [10] the target is T8, human FcγRIIa type R (Arg131) extracellular domain with C-terminal His tag (human, UniProt P12318 34-217).
T8 sequence (looked up): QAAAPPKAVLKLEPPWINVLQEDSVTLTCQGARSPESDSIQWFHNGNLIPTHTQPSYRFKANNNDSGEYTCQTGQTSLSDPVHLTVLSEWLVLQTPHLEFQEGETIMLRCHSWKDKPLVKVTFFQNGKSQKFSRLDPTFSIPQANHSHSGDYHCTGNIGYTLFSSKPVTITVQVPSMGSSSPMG
As to the kind of experiment: SPR.

Assay [11] deals with T9, human FcγRIIb extracellular domain with C-terminal His tag (human, UniProt P31994 43-217).
T9 sequence (looked up): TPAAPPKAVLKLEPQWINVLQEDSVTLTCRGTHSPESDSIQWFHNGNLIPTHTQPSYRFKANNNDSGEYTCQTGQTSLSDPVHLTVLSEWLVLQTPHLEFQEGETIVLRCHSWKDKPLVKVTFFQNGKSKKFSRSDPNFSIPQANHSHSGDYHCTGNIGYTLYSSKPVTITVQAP
Kind of assay: SPR.

Assay [12] concerns the target human FcγRIa extracellular domain with C-terminal His tag (human, UniProt P12314 16-292). Kind of assay: SPR.
Assay [13] concerns the target FcγRIIIa type V extracellular domain with C-terminal His tag (human, UniProt P08637 17-208). Kind of assay: SPR.

human FcγRIa extracellular domain with C-terminal His tag, sequence (P12314 16-292): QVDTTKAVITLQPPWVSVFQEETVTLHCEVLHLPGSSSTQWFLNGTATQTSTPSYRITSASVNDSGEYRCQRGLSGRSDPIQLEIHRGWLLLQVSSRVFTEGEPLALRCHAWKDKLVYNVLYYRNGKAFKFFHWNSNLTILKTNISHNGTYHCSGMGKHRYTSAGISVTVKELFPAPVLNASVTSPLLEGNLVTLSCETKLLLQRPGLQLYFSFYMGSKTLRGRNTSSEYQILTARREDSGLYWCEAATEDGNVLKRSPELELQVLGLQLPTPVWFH
FcγRIIIa type V extracellular domain with C-terminal His tag, sequence (P08637 17-208 F176V): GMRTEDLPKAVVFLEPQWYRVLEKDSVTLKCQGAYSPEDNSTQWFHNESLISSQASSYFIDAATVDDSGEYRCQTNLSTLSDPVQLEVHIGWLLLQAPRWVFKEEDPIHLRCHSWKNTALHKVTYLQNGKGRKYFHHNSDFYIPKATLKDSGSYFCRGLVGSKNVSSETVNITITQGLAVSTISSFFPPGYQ

B1: IL6R-BP478/IL6R-L (antibody)
heavy: QVQLQESGPGLVKPSETLSLTCAVSGHSISHDHAWSWVRQPPGEGLEWIGFISYSGITNYNPSLQGRVTISRDNSKNTLYLQMNSLRAEDTAVYYCARSLARTTAMDYWGEGTLVTVSSASTKGPSVFPLAPCSRSTSESTAALGCLVKDYFPEPVTVSWNSGALTSGVHTFPAVLQSSGLYSLSSVVTVPSSSLGTKTYTCNVDHKPSNTKVDKRVESKYGPPCPPCPAPDLLGDDSVFLFPPKPKDTLMISRTPEVTCVVVDVSDEDGEVKFNWYVDGVEVHNAKTKPREEQDNSTYRVVSVLTVLHQDWLNGKEYKCKVSNKALPRPIEKTISKAKGQPREPQVYTLPPSRDELTKNQVSLTCLVKGFYPSDIAVEWESNGQPENNYKTTPPVLDSDGSFFLYSKLTVDKSRWQQGNVFSCSVMHEALHNHYTQESLSLSP
light: not shown
As to B1, the “KD (IIaR)/KD (IIb)” value in assay [1] was 28. In assay [2], the “KD (IIaR) of parent polypeptide/KD (IIaR) of altered polypeptide” value was 2. Also, the “KD (IIb) of parent polypeptide/KD (IIb) of altered polypeptide” value in assay [3] was 161.

B2: IL6R-BP478/IL6R-L (antibody)
heavy: QVQLQESGPGLVKPSETLSLTCAVSGHSISHDHAWSWVRQPPGEGLEWIGFISYSGITNYNPSLQGRVTISRDNSKNTLYLQMNSLRAEDTAVYYCARSLARTTAMDYWGEGTLVTVSSASTKGPSVFPLAPCSRSTSESTAALGCLVKDYFPEPVTVSWNSGALTSGVHTFPAVLQSSGLYSLSSVVTVPSSSLGTKTYTCNVDHKPSNTKVDKRVESKYGPPCPPCPAPDLLGDDSVFLFPPKPKDTLMISRTPEVTCVVVDVSDEDGEVKFNWYVDGVEVHNAKTKPREEQDNSTYRVVSVLTVLHQDWLNGKEYKCKVSNKALPRPIEKTISKAKGQPREPQVYTLPPSRDELTKNQVSLTCLVKGFYPSDIAVEWESNGQPENNYKTTPPVLDSDGSFFLYSKLTVDKSRWQQGNVFSCSVMHEALHNHYTQESLSLSP
light: not shown
Take B2: the “binding relative to IL6R-BP230/IL6R-L” value is 0.9 fold with human FcγRIIa type R and 1.1 fold with human FcγRIIb.

B3: VH3/L(WT)-mIgG1-MB367 (antibody)
heavy: QVQLQESGPGLVKPSETLSLTCAVSGHSISHDHAWSWVRQPPGEGLEWIGFISYSGITNYNPSLQGRVTISRDNSKNTLYLQMNSLRAEDTAVYYCARSLARTTAMDYWGEGTLVTVSSAKTTPPSVYPLAPGSAAQTNSMVTLGCLVKGYFPEPVTVTWNSGSLSSGVHTFPAVLQSDLYTLSSSVTVPSSTWPSETVTCNVAHPASSTKVDKKIVPRDCGCKPCICEANEVEDVFIFPPKPKDVLTITLTPKVTCVVVDISKDDPEVQFSWFVDDVEVHTAQTQPREEQFNSTFRSVSELPIMHQDWLNGKEFKCRVNSAAFPAPIEKTISKTKGRPKAPQVYTIPPPKEQMAKDKVSLTCMITDFFPEDITVEWQWNGQPAENYKNTQPIMDTDGSYFVYSKLNVQKSNWEAGNTFTCSVLHEGLHNHHT
light: not shown
As a reminder, the Kd is the constant that tells how readily two partners part at equilibrium. A lower Kd goes with tighter binding. In the case of B3, the “binding ratio compared to mIgG1” value worked out at 6.2 in the assay with mouse FcγRIII [4] and 159 with mouse FcγRIIb [5]. Moreover, the Kd with mouse FcγRIII [6] was 0.0454 µM; with mouse FcγRIIb [7], 0.00132 µM.

B4: GA2-IgG1 (antibody, V domains shown)
VH: QVQLVQSGAEVKKPGSSVKVSCKASGGTFSSYAISWVRQAPGQGLEWMGGIIPIFGTANYAQKFQGRVTITADESTSTAYMELSSLRSEDTAVYYCARPRWETAISSDAFDIWGQGTMVTVSS
VL: DIQMTQSPSSLSASVGDRVTITCRASQSISDDLNWYQQKPGKAPKLLIYEASNLQSGVPSRFSGSGSGTDFTLTISSLQPEDFATYYCQQHSSSPLTFGQGTKVEIKR
The term kon denotes the second-order rate constant of association. For the molecule B4, the on-rate constant (kon) in [8] is 400000 M⁻¹ s⁻¹.

B5: GA2-IgG1 (antibody, V domains shown)
VH: QVQLVQSGAEVKKPGSSVKVSCKASGGTFSSYAISWVRQAPGQGLEWMGGIIPIFGTANYAQKFQGRVTITADESTSTAYMELSSLRSEDTAVYYCARPRWETAISSDAFDIWGQGTMVTVSS
VL: DIQMTQSPSSLSASVGDRVTITCRASQSISDDLNWYQQKPGKAPKLLIYEASNLQSGVPSRFSGSGSGTDFTLTISSLQPEDFATYYCQQHSSSPLTFGQGTKVEIKR
On to B5, for which the “Ca-dependent hIgA-binding activity (fold)” value with human IgA (hIgA) was ≥ 100 fold.

B6: IL6R-BP245/IL6R-L (antibody, human IgG1, kappa)
heavy: QVQLQESGPGLVKPSETLSLTCAVSGHSISHDHAWSWVRQPPGEGLEWIGFISYSGITNYNPSLQGRVTISRDNSKNTLYLQMNSLRAEDTAVYYCARSLARTTAMDYWGEGTLVTVSSASTKGPSVFPLAPSSKSTSGGTAALGCLVKDYFPEPVTVSWNSGALTSGVHTFPAVLQSSGLYSLSSVVTVPSSSLGTQTYICNVNHKPSNTKVDKKVEPKSCDKTHTCPPCPAPDLLGDDSVFLFPPKPKDTLMISRTPEVTCVVVDVQDEDGEVKFNWYVDGVEVHNAKTKPREEQDNSTYRVVSVLTVLHQDWLNGKEYKCKVSNDALPRPIEKTISKAKGQPREPQVYTLPPSRDELTKNQVSLTCLVKGFYPSDIAVEWESNGQPENNYKTTPPVLDSDGSFFLYSKLTVDKSRWQQGNVFSCSVMHEALHNHYTQESLSLSP
light: not shown
Take B6: the dissociation constant (Kd) in [9] turned out to be 23 µM.

B7: IL6R-BP500/IL6R-L (antibody, human IgG1, kappa)
heavy: QVQLQESGPGLVKPSETLSLTCAVSGHSISHDHAWSWVRQPPGEGLEWIGFISYSGITNYNPSLQGRVTISRDNSKNTLYLQMNSLRAEDTAVYYCARSLARTTAMDYWGEGTLVTVSSASTKGPSVFPLAPSSKSTSGGTAALGCLVKDYFPEPVTVSWNSGALTSGVHTFPAVLQSSGLYSLSSVVTVPSSSLGTQTYICNVNHKPSNTKVDKKVEPKSCDKTHTCPPCPAPELLGDDSVFLFPPKPKDTLMISRTPEVTCVVIDVAEEDGEVKFNWYVDGVEVHNAKTKPREEQDNSTYRVVSVLTVLHQDWLNGKEYKCKVSNKALPAPIEKTISKAKGQPREPQVYTLPPSRDELTKNQVSLTCLVKGFYPSDIAVEWESNGQPENNYKTTPPVLDSDGSFFLYSKLTVDKSRWQQGNVFSCSVMHEALHNHYTQESLSLSP
light: not shown
B7: the “KD (IIaR) of parent polypeptide/KD (IIaR) of altered polypeptide” value in [10] is 1.5. For the same molecule, in assay [11], the “KD (IIb) of parent polypeptide/KD (IIb) of altered polypeptide” value came out at 128. In addition, the binding result in assay [12] was “binds”.

B8: IL6R-BP248/IL6R-L (antibody, human IgG1, kappa)
heavy: QVQLQESGPGLVKPSETLSLTCAVSGHSISHDHAWSWVRQPPGEGLEWIGFISYSGITNYNPSLQGRVTISRDNSKNTLYLQMNSLRAEDTAVYYCARSLARTTAMDYWGEGTLVTVSSASTKGPSVFPLAPSSKSTSGGTAALGCLVKDYFPEPVTVSWNSGALTSGVHTFPAVLQSSGLYSLSSVVTVPSSSLGTQTYICNVNHKPSNTKVDKKVEPKSCDKTHTCPPCPAPDLLGDDSVFLFPPKPKDTLMISRTPEVTCVVVDVSDEDGEVKFNWYVDGVEVHNAKTKPREEQDNSTYRVVSVLTVLHQDWLNGKEYKCKVSNAALPRPIEKTISKAKGQPREPQVYTLPPSRDELTKNQVSLTCLVKGFYPSDIAVEWESNGQPENNYKTTPPVLDSDGSFFLYSKLTVDKSRWQQGNVFSCSVMHEALHNHYTQESLSLSP
light: not shown
The molecule B8 had a Kd in [13] of 4400 µM.

The values are drawn from US20260217793A1 (Chugai, published 2026).
